{
  "source": "patent US9322000B2",
  "about": "“Methanol dehydrogenase enzymes from Bacillus” (Sinvent AS, priority 2012, dated 2016)",
  "molecules": {"B1": {"name": "Mdh2-PB1: NAD-dependent methanol dehydrogenase encoded by chromosomal gene mdh2-PB1 of B. methanolicus PB1, SEQ ID NO. 6 (protein)", "chain": "MTNTQSIFYIPSVNLFGPGSVNEVGTRLAGLGVKKALLVTDAGLHGLGLSEKIASIIREAGVEVLIFPKAEPNPTDKNVAEGLEVYNAENCDSIVTLGGGSSHDAGKGIALVAANGGTIYDYEGVDKSKKPMVPLIAINTTAGTGSELTRFTIITDTERKVKMAIVDKHVTPTLSINDPELMVGMPPSLTAATGLDALTHAIEAYVSTAATPITDALAIQAIKIISKYLPRAFANGKDMEAREQMAFAQSLAGMAFNNASLGYVHAIAHQFGGFYNFPHGVCNAILLPHVCRFNLISKVERFAEIAALLGENVAGLSTREAAEKGIKAIERMAKDLNIPRGFKELGAKEEDIVTLAENAMKDATALTNPRKPKLEEVIQIIKNAM", "modifications": "Bacillus methanolicus PB1"}},
  "key": {"[1]": {"experiment": "Formaldehyde reductase assay of purified MDH proteins", "format": "biochemical", "settings": "45° C., formaldehyde reductase activity", "protocol": "(§1) Alcohol dehydrogenase activities were measured spectrophotometrically essentially as described previously (Hektor, Kloosterman et al. (2002) Chem 277(49): 46966-46973) and the reaction mixture contained: 100 mM Glycine-KOH pH 9.5 (unless otherwise stated), 5 mM MgSO4, 0.5 mM NAD^+ and 500 mM alcohol (methanol, ethanol, propanol, 1,3-propanediol, or butanol). NAD^+ was substituted with equal concentrations of NADP^+, FMN^+, and FAD^+, when indicated. The reaction mixture for measurements of formaldehyde reductase activity contained: 50 mM Potassium-phosphate buffer pH=6.7, 0.15 mM NADH, 1 mM DTT and 11.6 mM (0.1-116 mM) formaldehyde. The assay components were mixed in the cuvette and pre-warmed to 45° C., unless otherwise stated. The reactions were started by addition of 5-40 μg of the purified MDH proteins, and the production of NADH was monitored at 340 nm for 4 minutes. One unit of MDH activity was defined as the amount of enzyme needed to produce 1 μmol NADH per minute under the conditions described above. Purified Act (0.1-40 μg) or NudF (20 μg) proteins were added to the reaction mixtures as indicated in the text.\n(§2) The purified MDH and Act proteins (20 μg) were used in the kinetic experiments performing the methanol dehydrogenase and the formaldehyde dehydrogenase assays essentially as described above. […] For determination of the Km for NAD^+ (Km,NAD+) and Vmax, the methanol concentration was kept constant at a saturating level (500 mM), while the concentration of NAD^+ was varied (5-1000 μM). […] Act (20 μg) was added to the reaction mixtures for determination of Kμ,MεOH and Vmax values in the presence of this activator, as indicated in the text. In general, the slopes of activity versus time were linear in the measured period (data not shown). Km and Vmax values were calculated by using nonlinear regression with the Microsoft Excel solver-tool to fit the measured data to the Michaelis-Menten equation, as described previously (Jakobsen et al., (2009) Appl Environ Microbiol 75(3): 652-661). The values obtained from the regression were then compared to the values obtained from Lineweaver-Burk and Hanes-Woolf plots to ensure that the global minimum, not a local minimum, had been found."}, "[2]": {"experiment": "Heat stability: pre-incubation of purified MDHs at 45° C. or 60° C. prior to the enzyme assay", "format": "biochemical", "settings": "preincubation at 60° C.; compared to the remaining MDHs", "protocol": "FIG. 5. (A) Temperature stability of MGA3 Mdh, Mdh2 and Mdh3 was tested in vitro. Enzymes were incubated at 45° C. or at 60° C. prior to the enzyme assay. (B) Temperature stability of PB1 Mdh, Mdh1 and Mdh2 was tested in vitro. Enzymes were incubated at 45° C. or at 60° C. prior to the enzyme assay.\nThe heat stability of the six MDHs was tested by pre-incubation of the proteins at 45° C. and 60° C. and samples were taken at different time points for enzyme assays. As expected, all enzymes retained essentially all catalytic activity upon preincubations at 45° C. (FIG. 5). […] A selection of the experiments was repeated in the presence of equal amounts of purified Act, and this had no effect on temperature stability for any of the MDHs (data not shown)."}, "[3]": {"experiment": "Methanol dehydrogenase assay of purified recombinant MDH proteins (NADH production at 340 nm)", "format": "biochemical", "protocol": "as §1, §2"}, "[4]": {"experiment": "In vitro Mdh activity in crude cell extracts of recombinant E. coli", "format": "biochemical", "settings": "−Act, expressed in E. coli, crude cell extract", "source_text": "(§3) The genes coding for Mdh and the Mdh activator protein Act were amplified from pET21a-plasmids harboring genes from B. methanolicus strains MGA3 (mdh-MGA3, mdh2-MGA3, mdh3-MGA3 and act-MGA3) and PB1 (mdh-PB1, mdh1-PB1 and mdh2-PB1). The genes were then cloned either into the pSEVA424 plasmid (mdh genes) or in the pSEVA131 plasmid (act gene). For cloning of mdh-MGA3, mdh-PB1, mdh1-PB1 and act-MGA3, EcoRI and HindIII restrictions sites were used, while mdh2-MGA3, mdh2-PB1 and mdh3-MGA3 were cloned by using EcoRI and PstI restriction sites. The resulting expression vectors were transformed into electrocompetent wt E. coli K-12 (BW25113) and into E. coli K-12 (BW25113) with a deleted frmA gene.\n(§4) Expression Experiments For expression experiments, the cells were cultivated in either Luria-Bertani (LB) medium for in vitro assays or in M9 medium for in vivo assays both containing 20 μg/ml streptomycin for pSEVA424. When Act was co-expressed the medium was supplemented with 100 μg/ml ampicillin. Expression was induced when cells reached OD 0.5 (for in vitro tests) or OD 1 (for in vivo tests) by adding 0.1 mM IPTG (final concentration) for 6 hours. Cells were then harvested by centrifugation. For in vitro assays, crude cell extract was prepared by lysing the cells in a French press following ultracentrifugation. Alternatively, cells were resuspended in M9-medium without glucose for in vivo activity measurements. Enzyme Assays\nIn vitro measurements of Mdh activity: For determination of Mdh activity in crude cell extracts, the Mdh dependent formation of NADH was monitored at 340 nm. The assays were performed either at 37° C. or 45° C. in prewarmed buffer solutions. The Mdh assay contained 10-20 μg enzyme, 50 mM K2HPO4-buffer, pH7.4, 2.5 mM MgCl and 0.5 mM of NAD^+ (final concentrations). After 5 min of preincubation, the reaction was started with 1 M of methanol (final concentration)."}, "[5]": {"experiment": "Substrate specificity of purified MDH proteins on alternative alcohols", "format": "biochemical", "settings": "all alternative alcohol substrates", "protocol": "FIG. 3. Catalytic activities of purified Mdh (black), Mdh2 (dark grey) and Mdh3 (light grey) on various alcohols (200 mM) tested in vitro. (A) Substrate specificity was analysed for MDHs from B. methanolicus MGA3 in vitro. Alcohol substrates were used at concentrations of 500 mM except for pentanol (300 mM) and hexanol (50 mM). The data were calculated from the mean value from two experiments which were done in triplicate. (B) Substrate specificity for MDHs from B. methanolicus PB1 was analysed in vitro. Alcohol substrates were used at concentrations of 500 mM except for pentanol (300 mM) and hexanol (50 mM). The data were calculated from the mean value from two experiments which were done in triplicate.\nAlcohol dehydrogenase activities were measured spectrophotometrically essentially as described previously (Hektor, Kloosterman et al. (2002) Chem 277(49): 46966-46973) and the reaction mixture contained: 100 mM Glycine-KOH pH 9.5 (unless otherwise stated), 5 mM MgSO4, 0.5 mM NAD^+ and 500 mM alcohol (methanol, ethanol, propanol, 1,3-propanediol, or butanol). NAD^+ was substituted with equal concentrations of NADP^+, FMN^+, and FAD^+, when indicated. […] The reactions were started by addition of 5-40 μg of the purified MDH proteins, and the production of NADH was monitored at 340 nm for 4 minutes. […]"}, "[6]": {"experiment": "In vivo Mdh activity in cell suspensions of recombinant E. coli (formaldehyde accumulating in supernatant)", "format": "cell-based", "settings": "37° C., −Act; E. coli cell suspension", "source_text": "as §3, §4\nIn vivo measurements of Mdh activity: For determination of Mdh activity in cell suspensions, cells were harvested after IPTG induction, washed and resuspended in M9-medium without glucose and IPTG. OD600 was set to 1 for normalization. […] The assay was started by addition of 1 M methanol and subsequent measurement of accumulating formaldehyde in the supernatant resulting from the methanol dehydrogenase catalyzed oxidation of methanol. The calculated activities were based on the assumption that 1 l of an OD1 culture contains 0.3 g biomass of which 50% is protein."}},
  "note": "“Also recorded” adds a separate entry of the source.",
  "data": [
    {"molecule": "B1", "values": [
      {"measurement": "Vmax, variable substrate Formaldehyde", "setting": "[1]", "value": 1.12, "unit": "U/mg"},
      {"measurement": "Km", "setting": "[1]; read-out: Km, variable substrate Formaldehyde", "value": 1.3, "unit": "mM"},
      {"measurement": "temperature stability in vitro (in words)", "setting": "[2]", "value": "Higher Temperature Stabilities; also recorded: only moderate negative effects; also recorded: improved thermostability"},
      {"measurement": "Vmax, variable substrate Methanol + Act", "setting": "[3]; 45° C., pH 9.5, 20 μg MDH + 20 μg Act", "value": 0.24, "unit": "U/mg"},
      {"measurement": "Km", "setting": "[3]; 45° C., pH 9.5, 20 μg MDH + 20 μg Act, read-out: Km, variable substrate Methanol + Act", "value": 36, "unit": "mM"},
      {"measurement": "Vmax, variable substrate Methanol", "setting": "[3]; 45° C., pH 9.5, absence of Act", "value": 0.065, "unit": "U/mg"},
      {"measurement": "reduction of Km,MeOH in the presence of Act", "setting": "[3]; Act added vs. no Act", "value": 4, "unit": "fold"},
      {"measurement": "In vitro activity", "setting": "[4]; 37° C.", "value": 33, "unit": "mU/mg"},
      {"measurement": "In vitro activity", "setting": "[4]; 45° C.", "value": 103, "unit": "mU/mg"},
      {"measurement": "catalytic activity on alternative alcohols compared with the remaining MDHs", "setting": "[5]", "value": "significantly higher catalytic activity than the remaining enzymes"},
      {"measurement": "In vivo activity", "setting": "[6]", "value": 3, "unit": "mU/mg"}
    ]}
  ]
}
